From patent US20070244048A1 (published 2007)
Several values for one entry are separate records, joined by “and”; a condition that tells them apart may be missing. Equal entries are not always repeated. Non-standard residues stand in square brackets, D forms with d. *: point of attachment. (PEG)2 40 kDa = branched PEG of 40 kDa linked via the Cys side-chain thiol (code C2 = Cys(PEG)2 40 kDa); Cholesteroyl = cholesterol linked to a cysteine residue via the side-chain thiol; Palmitoyl = CCCCCCCCCCCCCCCC(=O)*

T1: rat NMUR1-TTG (rat, UniProt Q9JJI5 1-425)
T1 sequence (looked up): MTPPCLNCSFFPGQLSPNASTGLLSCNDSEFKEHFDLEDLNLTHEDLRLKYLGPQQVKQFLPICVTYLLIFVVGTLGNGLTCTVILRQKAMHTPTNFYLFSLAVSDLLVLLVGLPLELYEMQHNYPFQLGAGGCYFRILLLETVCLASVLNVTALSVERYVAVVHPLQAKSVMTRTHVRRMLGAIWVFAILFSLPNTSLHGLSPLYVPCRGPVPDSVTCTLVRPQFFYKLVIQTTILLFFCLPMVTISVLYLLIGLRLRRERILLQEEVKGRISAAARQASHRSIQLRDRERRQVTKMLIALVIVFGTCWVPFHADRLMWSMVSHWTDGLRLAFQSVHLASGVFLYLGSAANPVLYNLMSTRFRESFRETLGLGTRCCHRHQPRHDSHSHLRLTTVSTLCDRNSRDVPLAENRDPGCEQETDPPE

T2: rat NMUR1-ATG (rat, UniProt Q9JJI5 1-425)
T2 sequence (looked up): T1 sequence (looked up)

T3: human NMUR1 (human, UniProt Q9HB89 1-426)
T3 sequence (looked up): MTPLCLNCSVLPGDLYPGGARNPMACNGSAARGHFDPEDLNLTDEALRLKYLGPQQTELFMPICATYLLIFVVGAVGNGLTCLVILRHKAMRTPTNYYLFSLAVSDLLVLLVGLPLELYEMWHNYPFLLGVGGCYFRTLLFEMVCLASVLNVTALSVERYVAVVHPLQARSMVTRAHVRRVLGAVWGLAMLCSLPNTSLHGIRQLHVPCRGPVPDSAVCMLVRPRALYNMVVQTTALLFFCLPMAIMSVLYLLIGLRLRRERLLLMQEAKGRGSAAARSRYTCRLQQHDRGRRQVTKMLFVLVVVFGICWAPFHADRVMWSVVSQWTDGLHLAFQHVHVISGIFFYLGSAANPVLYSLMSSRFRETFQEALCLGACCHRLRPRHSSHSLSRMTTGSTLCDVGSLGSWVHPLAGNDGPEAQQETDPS

T4: mouse NMUR1-CTG (mouse, UniProt O55040 1-428)
T4 sequence (looked up): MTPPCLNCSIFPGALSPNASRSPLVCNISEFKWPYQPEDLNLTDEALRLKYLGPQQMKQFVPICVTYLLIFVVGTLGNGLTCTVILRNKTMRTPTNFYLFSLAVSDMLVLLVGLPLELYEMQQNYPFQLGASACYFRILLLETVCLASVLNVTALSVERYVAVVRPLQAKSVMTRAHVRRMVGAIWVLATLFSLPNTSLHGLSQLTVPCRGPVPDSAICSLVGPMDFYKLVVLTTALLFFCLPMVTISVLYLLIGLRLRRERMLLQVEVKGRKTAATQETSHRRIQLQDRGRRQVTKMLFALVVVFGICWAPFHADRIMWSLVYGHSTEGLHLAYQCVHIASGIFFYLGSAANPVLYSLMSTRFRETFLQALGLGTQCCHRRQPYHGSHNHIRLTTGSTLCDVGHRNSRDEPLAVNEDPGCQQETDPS

T5: mouse NMUR1-ATG (mouse, UniProt O55040 1-428)
T5 sequence (looked up): T4 sequence (looked up)

B1: NMU11 (peptide)
peptide: Ac-C(Cholesteroyl)GYFLFRPRN-NH2
B2: NMU2 (peptide)
peptide: Ac-FRVDEEFQSPFASQSRGYFLFRPRN-NH2
B3: NMU25 (peptide)
peptide: Palmitoyl-C((PEG)2 40 kDa)FRVDEEFQSPFASQSRGYFLFRPRN-NH2
B4: NMU12 (peptide)
peptide: Ac-C((PEG)2 40 kDa)FRVDEEFQSPFASQSRGYFLFRPRN-NH2
B5: NMU10 (peptide)
peptide: Ac-C(Cholesteroyl)FRVDEEFQSPFASQSRGYFLFRPRN-NH2
B6: NMU14 (peptide)
peptide: Ac-C((PEG)2 40 kDa)FRVDEEFQSPFASQSRGYF[dA]WRPRN-NH2
B7: NMU7 (peptide)
peptide: Ac-C((PEG)2 40 kDa)GYFLFRPRN-NH2

What follows are binders tested against rat NMUR2 (rat, UniProt Q9ESQ4 1-395) (assay: cell-based or functional assay).
rat NMUR2, sequence (Q9ESQ4 whole entry): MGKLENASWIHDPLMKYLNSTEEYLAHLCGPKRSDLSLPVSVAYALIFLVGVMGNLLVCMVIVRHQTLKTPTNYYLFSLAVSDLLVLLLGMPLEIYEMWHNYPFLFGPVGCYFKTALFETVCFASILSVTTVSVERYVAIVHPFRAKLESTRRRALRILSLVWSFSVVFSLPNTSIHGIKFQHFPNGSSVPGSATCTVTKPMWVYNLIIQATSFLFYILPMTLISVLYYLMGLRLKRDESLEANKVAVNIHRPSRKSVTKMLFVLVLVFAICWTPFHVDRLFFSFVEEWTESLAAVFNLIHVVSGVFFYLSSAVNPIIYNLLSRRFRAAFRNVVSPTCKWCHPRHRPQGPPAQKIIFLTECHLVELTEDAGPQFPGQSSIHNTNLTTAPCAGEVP
For B1, the “% Activity (FLIPR)” value was 33.2% and the “EC50 (FLIPR)” value was 1000 nM.
B2 was tested, and the “% Activity (FLIPR)” value was 100% and the “EC50 (FLIPR)” value was 2.2 nM.
In the case of B3, the “% Activity (FLIPR)” value is reported as 96.4% and the “EC50 (FLIPR)” value is reported as 37.8 nM.
In the case of B4, the “% Activity (FLIPR)” value is reported as 43.4% and the “EC50 (FLIPR)” value is reported as 1000 nM.
In the case of B5, the “% Activity (FLIPR)” value is reported as 97.4% and the “EC50 (FLIPR)” value is reported as 41.5 nM.

What follows are binders tested against T1, rat NMUR1-TTG (assay: cell-based or functional assay).
B6 was tested, and the “% Activity (FLIPR)” value was 36.7% and the “EC50 (FLIPR)” value was over 1000 nM.
For B3, the “% Activity (FLIPR)” value was 93.5% and the “EC50 (FLIPR)” value was 81 nM.

Each binder was assayed against T2, rat NMUR1-ATG (assay: cell-based or functional assay).
For B6, the “EC50 (FLIPR)” value was 240 nM and 133 nM.
In the case of B1, the “% Activity (FLIPR)” value is reported as 50.9% and the “EC50 (FLIPR)” value is reported as 316 nM.
For B2, the “% Activity (FLIPR)” value was 89.2% and the “EC50 (FLIPR)” value was 3.3 nM.
In the case of B3, the “% Activity (FLIPR)” value is reported as 99.6% and the “EC50 (FLIPR)” value is reported as 20.1 nM.
In the case of B4, the “% Activity (FLIPR)” value is reported as 52.7% and the “EC50 (FLIPR)” value is reported as 1000 nM.
In the case of B5, the “% Activity (FLIPR)” value is reported as 80.1% and the “EC50 (FLIPR)” value is reported as 201 nM.

The binders below were run against T3, human NMUR1 (assay: cell-based or functional assay).
B6 was tested, and the “% Activity (FLIPR)” value was 95.7% and the “EC50 (FLIPR)” value was 104 nM.
B7 was tested, and the “% Activity (FLIPR)” value was 91.4% and the “EC50 (FLIPR)” value was 79.6 nM.
For B1, the “% Activity (FLIPR)” value was 20.6% and the “EC50 (FLIPR)” value was 1000 nM.
B2 was tested, and the “% Activity (FLIPR)” value was 99% and the “EC50 (FLIPR)” value was 5.5 nM.
B3 was tested, and the “% Activity (FLIPR)” value was 83% and the “EC50 (FLIPR)” value was 168 nM.
In the case of B4, the “% Activity (FLIPR)” value is reported as 92.9% and the “EC50 (FLIPR)” value is reported as 58.6 nM.
In the case of B5, the “% Activity (FLIPR)” value is reported as 26.6% and the “EC50 (FLIPR)” value is reported as 1000 nM.

The binders below were run against human NMUR2 (human, UniProt Q9GZQ4 1-415) (assay: cell-based or functional assay).
human NMUR2, sequence (Q9GZQ4 whole entry): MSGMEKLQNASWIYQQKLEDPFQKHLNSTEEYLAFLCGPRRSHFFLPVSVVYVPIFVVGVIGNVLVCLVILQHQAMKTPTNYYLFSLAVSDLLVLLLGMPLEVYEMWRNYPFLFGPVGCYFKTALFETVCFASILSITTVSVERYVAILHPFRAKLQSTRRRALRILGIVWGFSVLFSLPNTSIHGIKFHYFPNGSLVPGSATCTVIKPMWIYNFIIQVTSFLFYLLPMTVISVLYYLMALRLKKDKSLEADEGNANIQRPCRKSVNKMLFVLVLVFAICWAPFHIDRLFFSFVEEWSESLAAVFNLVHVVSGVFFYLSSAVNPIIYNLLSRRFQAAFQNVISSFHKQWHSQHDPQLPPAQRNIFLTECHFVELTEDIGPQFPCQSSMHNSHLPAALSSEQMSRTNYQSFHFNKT
For B6, the “% Activity (FLIPR)” value was 0% and the “EC50 (FLIPR)” value was over 1000 nM.
B7 was tested, and the “% Activity (FLIPR)” value was 91.8% and the “EC50 (FLIPR)” value was 36.1 nM.
For B1, the “% Activity (FLIPR)” value was 37.3% and the “EC50 (FLIPR)” value was 1000 nM.
For B2, the “% Activity (FLIPR)” value was 97.4% and the “EC50 (FLIPR)” value was 2.6 nM.
With B3 the “% Activity (FLIPR)” value was 98.8% and the “EC50 (FLIPR)” value was 44.1 nM.
With B4 the “% Activity (FLIPR)” value was 89% and the “EC50 (FLIPR)” value was 119 nM.
For B5, the “% Activity (FLIPR)” value was 31.3% and the “EC50 (FLIPR)” value was 1000 nM.

These binders were tested against mouse NMUR2 (mouse, UniProt Q8BZ39 1-395) (assay: cell-based or functional assay).
mouse NMUR2, sequence (Q8BZ39 whole entry): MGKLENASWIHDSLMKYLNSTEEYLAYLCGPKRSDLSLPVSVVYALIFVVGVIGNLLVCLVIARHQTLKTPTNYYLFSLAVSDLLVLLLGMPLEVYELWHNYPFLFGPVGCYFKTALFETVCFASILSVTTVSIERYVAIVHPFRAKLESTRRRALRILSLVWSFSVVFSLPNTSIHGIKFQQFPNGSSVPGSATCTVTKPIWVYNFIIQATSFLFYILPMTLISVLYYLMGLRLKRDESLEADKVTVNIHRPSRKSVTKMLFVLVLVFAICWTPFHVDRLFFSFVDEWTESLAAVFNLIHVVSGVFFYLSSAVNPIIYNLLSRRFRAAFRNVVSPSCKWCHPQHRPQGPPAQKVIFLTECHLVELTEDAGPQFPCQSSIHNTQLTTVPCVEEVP
For B6, the “% Activity (FLIPR)” value was 0% and the “EC50 (FLIPR)” value was over 1000 nM.
With B1 the “% Activity (FLIPR)” value was 70.5% and the “EC50 (FLIPR)” value was 1000 nM.
B2 was tested, and the “% Activity (FLIPR)” value was 100% and the “EC50 (FLIPR)” value was 1.2 nM.
B3 was tested, and the “% Activity (FLIPR)” value was 100% and the “EC50 (FLIPR)” value was 18.8 nM.
In the case of B4, the “% Activity (FLIPR)” value is reported as 94.1% and the “EC50 (FLIPR)” value is reported as 19.1 nM.
For B5, the “% Activity (FLIPR)” value was 70.5% and the “EC50 (FLIPR)” value was 1000 nM.

These binders were tested against T4, mouse NMUR1-CTG (assay: cell-based or functional assay).
B6 was tested, and the “% Activity (FLIPR)” value was 24.8% and the “EC50 (FLIPR)” value was over 1000 nM.
In the case of B1, the “% Activity (FLIPR)” value is reported as 65% and the “EC50 (FLIPR)” value is reported as 600 nM.
For B2, the “% Activity (FLIPR)” value was 100% and the “EC50 (FLIPR)” value was 8.3 nM.
B3 was tested, and the “% Activity (FLIPR)” value was 100% and the “EC50 (FLIPR)” value was 60.3 nM.
With B4 the “% Activity (FLIPR)” value was 68.5% and the “EC50 (FLIPR)” value was 407 nM.
For B5, the “% Activity (FLIPR)” value was 69.2% and the “EC50 (FLIPR)” value was 1000 nM.

What follows are binders tested against T5, mouse NMUR1-ATG (assay: cell-based or functional assay).
With B6 the “% Activity (FLIPR)” value was 60.8% and the “EC50 (FLIPR)” value was 584 nM.
In the case of B1, the “% Activity (FLIPR)” value is reported as 81.3% and the “EC50 (FLIPR)” value is reported as 1000 nM.
For B2, the “% Activity (FLIPR)” value was 100% and the “EC50 (FLIPR)” value was 2.1 nM.
For B3, the “% Activity (FLIPR)” value was 100% and the “EC50 (FLIPR)” value was 10.2 nM.
For B4, the “% Activity (FLIPR)” value was 98.4% and the “EC50 (FLIPR)” value was 72 nM.
With B5 the “% Activity (FLIPR)” value was 76.8% and the “EC50 (FLIPR)” value was 173 nM.
